The experiment deals with T1, CRM1^HA (Mus musculus, UniProt Q6P5F9, L431A/V430A/V432A).
T1 construct: His-ZZ (cleaved yes); made in house; host or cells: Escherichia coli BL21-CodonPlus (DE3)
Briefly: Isothermal titration calorimetry, CRM1^HA / NES. It is filed as binding. As to conditions: ITC, TFP-NES titrated onto CRM1^HA, 20°C, 20 mM HEPES pH 7.4; rounded; read-out: KD. The method, then: Isothermal titration calorimetry (ITC)
ITC measurements were carried out using a VIP-ITC MicroCalorimeter (MicroCal, Inc., Northampton, MA). TFP and YFP constructs, as well as CRM1^HA, were dialyzed in a buffer containing 20 mM HEPES, pH 7.4, 50 mM NaCl, 1 mM TCEP, 1 mM MgCl2, and degassed prior to the experiment. Untagged peptides (AS: QDLCLAVEEVSLRK, AL: EAIQDLCLAVEEVSLRK, ES: QDLWQSLAQVSLRK and EL: EAIQDLWQSLAQVSLRK), N-acetylated and 95% pure, were purchased from Proteogenix (Schiltigheim, France) and resuspended in the ITC buffer. Measurements were performed at 20°C. TFP-NES, YFP-NES or NES peptides at 35–180 μM were titrated onto CRM1^HA at 2–14 μM. Injections of 6 μL were performed at 320 seconds interval (the first injection always was of 1 μL and is not considered in data analysis). […]
The reaction heat of each injection is related to the calorimetric enthalpy of binding, ΔH^0. The binding isotherms, ΔH^0 vs. molar ratio, were analyzed with an independent binding sites model using MicroCal Origin software. […] The Gibbs free energy of binding ΔG^0 and the entropy ΔS^0 are determined from the basic thermodynamic expressions: ΔG^0 = -RTlnKA = ΔH^0−TΔS^0, where R and T are the gas constant and the absolute temperature, respectively. […]

T1 sequence (Q6P5F9 1-1062 V430A/L431A/V432A limits assumed): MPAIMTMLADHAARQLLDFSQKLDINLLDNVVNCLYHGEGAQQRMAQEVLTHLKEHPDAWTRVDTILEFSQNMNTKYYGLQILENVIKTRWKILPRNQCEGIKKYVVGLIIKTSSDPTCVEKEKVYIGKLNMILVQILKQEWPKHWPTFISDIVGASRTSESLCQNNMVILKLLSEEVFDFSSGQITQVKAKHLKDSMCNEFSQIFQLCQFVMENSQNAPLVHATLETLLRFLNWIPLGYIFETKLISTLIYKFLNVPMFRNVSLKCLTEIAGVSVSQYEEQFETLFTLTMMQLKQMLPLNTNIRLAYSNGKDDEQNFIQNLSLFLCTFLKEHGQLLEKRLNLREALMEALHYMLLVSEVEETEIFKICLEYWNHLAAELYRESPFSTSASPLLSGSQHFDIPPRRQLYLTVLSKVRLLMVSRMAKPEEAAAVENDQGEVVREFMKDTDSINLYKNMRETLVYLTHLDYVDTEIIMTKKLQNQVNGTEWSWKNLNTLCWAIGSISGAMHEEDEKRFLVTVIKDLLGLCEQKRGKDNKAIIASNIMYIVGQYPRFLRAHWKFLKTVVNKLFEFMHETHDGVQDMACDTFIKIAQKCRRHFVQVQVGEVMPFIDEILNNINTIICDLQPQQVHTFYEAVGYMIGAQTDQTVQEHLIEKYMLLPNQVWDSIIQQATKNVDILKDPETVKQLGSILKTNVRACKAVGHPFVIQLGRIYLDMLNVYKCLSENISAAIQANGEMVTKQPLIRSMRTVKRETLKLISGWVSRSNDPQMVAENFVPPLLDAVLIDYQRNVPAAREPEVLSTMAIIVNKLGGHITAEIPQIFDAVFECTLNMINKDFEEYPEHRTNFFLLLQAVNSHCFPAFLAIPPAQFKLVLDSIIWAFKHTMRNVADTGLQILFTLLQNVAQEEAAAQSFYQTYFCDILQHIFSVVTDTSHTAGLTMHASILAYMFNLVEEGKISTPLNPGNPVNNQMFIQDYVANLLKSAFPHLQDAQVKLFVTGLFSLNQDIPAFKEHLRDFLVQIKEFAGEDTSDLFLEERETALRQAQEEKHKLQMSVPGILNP

B1: NPMmutE: AML-associated NPM mutant E; in b62 the value is for its NES as TFP construct (protein)
chain: MEDSMDMDMSPLRPQNYLFGCELKADKDYHFKVDNDENEHQLSLRTVSLGAGAKDELHIVEAEAMNYEGSPIKVTLATLKMSVQPTVSLGGFEITPPVVLRLKCGSGPVHISGQHLVAVEEDAESEDEEEEDVKLLSISGKRSAPGGGSKVPQKKVKLAADEDDDDDDEEDDDEDDDDDDFDDEEAEEKAPVKKSIRDTPAKNAQKSNQNGKDSKPSSTPRSKGQESFKKQEKTPKTPKGPSSVEDIKAKMQASIEKGGSLPKVEAKFINYVKNCFRMTDQEAIQDLWQSLAQVSLRK
modifications: full-length mutant E, pentamer (SEC); for the b62 value only the NES DLWQSLAQVSLRK as TFP fusion was assayed
Consider B1, for which the Kd was 1000 nM.

B2: NPMmutA: AML-associated NPM mutant A; in b62 the value is for its NES as TFP construct (protein)
chain: MEDSMDMDMSPLRPQNYLFGCELKADKDYHFKVDNDENEHQLSLRTVSLGAGAKDELHIVEAEAMNYEGSPIKVTLATLKMSVQPTVSLGGFEITPPVVLRLKCGSGPVHISGQHLVAVEEDAESEDEEEEDVKLLSISGKRSAPGGGSKVPQKKVKLAADEDDDDDDEEDDDEDDDDDDFDDEEAEEKAPVKKSIRDTPAKNAQKSNQNGKDSKPSSTPRSKGQESFKKQEKTPKTPKGPSSVEDIKAKMQASIEKGGSLPKVEAKFINYVKNCFRMTDQEAIQDLCLAVEEVSLRK
modifications: full-length mutant A, pentamer (SEC); for the b62 value only the NES DLCLAVEEVSLRK as TFP fusion was assayed
On to B2, for which the Kd amounted to 2400 nM.

By Kd is commonly meant the concentration at which binding is half-saturated.

The values above are taken from article PMC4474691, “Leukemia-Associated Mutations in Nucleophosmin Alter Recognition by CRM1: Molecular Basis of Aberrant Transport” (PLoS ONE, 2015).
